In patent publication US20240279618A1, “RECEPTOR TYROSINE KINASE AGONIST, COMPOSITION FOR CELL CULTURE MEDIUM, AND […] MAINTENANCE COMPOSITION” (SEKISUI CHEMICAL CO., LTD., priority 2021, published 2024):

B1: #1-L4-#1: dimer of VHH #1 with linker L4 (GSEGKSSGSGSESKST), SEQ ID NO: 23 (protein)
VHH: QLQLVESGGGSVQAGGSLRLSCAASRSLSRFNVWTWYRQAPVKQRELVASITKSGDTNYAESVKGRFIISRDDDKNTVYLQMNNLKSEDTGIYYCAGSYYSGSYLYPSPGGFSVWGQGTQVTVSSGSEGKSSGSGSESKSTQLQLVESGGGSVQAGGSLRLSCAASRSLSRFNVWTWYRQAPVKQRELVASITKSGDTNYAESVKGRFIISRDDDKNTVYLQMNNLKSEDTGIYYCAGSYYSGSYLYPSPGGFSVWGQGTQVTVSS
modifications: #1-L4-#1

Key:
[1] = system: human bone marrow-derived MSC; test: MSC: evaluation of fat differentiation induction (Oil Red O); format: cell-based; details: MSC after 3-passage subculture with 20 ng/ml additive, 14 days induction
Method: A third passage was performed in a CellBIND(R) 24-well transparent multi-well plate (Corning, C/N: 3337), and then at a time of reaching 80% to 90% confluence, medium exchange was performed in MesenCult Stem Cell Adipogenic Differentiation Medium (PromoCell, C/N: C-28016) which is a medium for differentiation induction. Furthermore, for the cells as a negative control, D-MEM (10% FBS or 20% FBS) was used for the medium exchange. The medium exchange was carried out every 2 to 4 days.
After 14 days from seeding, a 4% paraformaldehyde/phosphate buffer solution was added thereto at 500 μL/well, and the cells were left to stand for 2 hours or longer. After the immobilization, purified water was added thereto at 500 μL/well. An Oil Red stock liquid (Cosmo Bio Co., Ltd., C/N: AK09F) and purified water were mixed at a ratio of 6:4, and the mixture was left to stand at room temperature for 10 to 15 minutes. Thereafter, the filtrate was filtered through a membrane filter having a pore size of 0.5 to 1.0 μm, and the filtrate was used as an Oil Red O liquid. 500 μL of the Oil Red O liquid was added to each well and the mixture was left to stand at room temperature for 15 minutes. […] 100 μL of the eluate was transferred to a 96-well plate and the absorbance at 520 nm was measured. […]

[2] = system: human bone marrow-derived MSC; test: MSC culture: evaluation of cell growth and morphology; format: cell-based; set-up: key to P3 Growth rate / P4 Growth rate / P5 Growth rate: cells per well at passage divided by cells at seeding; details: for P2 Count (3-well) / P2 Growth rate / P3 Count (3-well) / P3 Growth rate / P4 Count (3-well) / P4 Growth rate / P5 Count (3-well) / P5 Growth rate / cumulative number of cells (average value), P1 / cumulative number of cells (average value), P2 / cumulative number of cells (average value), P3 / cumulative number of cells (average value), P4 / cumulative number of cells (average value), P5 / P1 Count (2-well): MSC, 20 ng/mL; for cumulative number of cells (average value), P1: culture day 5; for cumulative number of cells (average value), P2: culture day 10; for cumulative number of cells (average value), P3: culture day 15; for cumulative number of cells (average value), P4: culture day 20; for cumulative number of cells (average value), P5: culture day 25; for growth performance of MSC (cumulative number of cells): regardless of the FBS concentration (10% or 20%); for morphology of MSC: 4 passages, Day 1
Method: 10 mL of a used portion of D-MEM medium (Low Glucose, Glutamine) (Fujifilm Wako Pure Chemical Corporation, C/N: 041-29775) was added to a 15 mL PP tube, and warmed in a thermostatic water tank (set at 37° C.). A human bone marrow-derived MSC (Stemcell Technologies, C/N: 70022) stock tube preserved in a liquid nitrogen gas phase was taken out from a liquid nitrogen container and thawed in a thermostatic water tank (set at 37° C.). Thereafter, the cells were rapidly moved with a pipette into the tube (including 10 mL of the medium) that had been heated to 37° C. in a clean bench, and mixed by pipetting. The tube was centrifuged (300× g, 5 minutes) and the supernatant was removed with an aspirator.
An appropriate amount of D-MEM that had been warmed to room temperature was added to a cell pellet and mixed, and then the number of cells was evaluated with a cell counter. An appropriate amount of the cell suspension was taken into a 15 mL PP tube and centrifuged (300× g, 5 minutes). The supernatant was removed, an appropriate amount of D-MEM (containing 10% or 20% of FBS (Thermo Fisher Scientific Inc., 16140071); the stock was preserved under refrigeration and used within 2 weeks) was added to a cell pellet to adjust a cell suspension (1).
The number of cells was evaluated again with a cell counter and the cells were appropriately diluted with each of the media. Next, a stock of basic FGF or VHH was added to the cell suspension (1), so that each of the final concentrations was 1 ng/ml or ng/mL. Seeding was performed onto a CellBIND 6-well plate (Coming, C/N: 3335) at a density of 3-5×10^4/well, and after 2 to 4 days, medium exchange was performed using D-MEM (containing 10% FBS or 20% FBS).
The cells were observed under a microscope, and basically, passage was carried out after 5 days from seeding. In advance, the used D-MEM (0% FBS, 10% FBS, or 20% FBS) was warmed in advance in a thermostatic water tank (set at 37° C.). After washing the cells with D-PBS, 500 μL of TrypLE Express was added thereto and the cells were left to stand in a CO2 incubator. After 5 to 10 minutes, the culture container was removed from the CO2 incubator, and a change in cell morphology was confirmed under a microscope. Thereafter, 1 mL of D-MEM was added to each well, and the cells were released by pipetting, suspended, and then recovered in a 15 mL PP tube.
The tube was centrifuged (300× g, 5 minutes) and the supernatant was removed with an aspirator. An appropriate amount of a D-MEM medium (containing 10% FBS or 20% FBS) was added to the cell pellet, and mixed by pipetting. A part of the cell suspension was collected and the number of cells was evaluated with a cell counter. After counting the […] in each well, the cell suspensions in the same group were collected in one tube and mixed together. The average value of individual wells was used to calculate the number of cells at the time of passage.
The cell suspension was appropriately diluted with D-MEM (10% FBS or 20% FBS). The cells were seeded on a new CellBIND 6-well plate at […] cells/well. Furthermore, one well was adjusted to 2 mL/well. After 2 to 4 days, medium exchange was performed with a medium at room temperature.
The average value of the counts of number of cells per well acquired during the passage was used to create a cell growth straight line. In addition, a value obtained by dividing the number of cells per well at the time of passage by the number of cells at the time of seeding was defined as a growth rate during that period, and the rate was used at the time of calculating a cumulative number of cells. In a case in which the number of cells per well at the time of initial seeding is defined as P(0) and the time of the N^th passage is defined as P(N), the cumulative number of cells at each passage is determined by the following calculation equation. […]

[3] = FBS 10%, cells at passage divided by cells at seeding
[4] = FBS 10%, number of cells (average value) at passage P1

Molecule | differentiation into the fat cell line (Oil Red O) [1] | P2 Count (3-well) ([2]; FBS 10%) | P2 Growth rate [2, 3] | P3 Count (3-well) ([2]; FBS 10%) | P3 Growth rate ([2]; FBS 10%) | P4 Count (3-well) ([2]; FBS 10%) | P4 Growth rate ([2]; FBS 10%) | P5 Count (3-well) ([2]; FBS 10%) | P5 Growth rate ([2]; FBS 10%) | cumulative number of cells (average value), P1 ([2]; FBS 10%) | cumulative number of cells (average value), P2 ([2]; FBS 10%) | cumulative number of cells (average value), P3 ([2]; FBS 10%) | cumulative number of cells (average value), P4 ([2]; FBS 10%) | cumulative number of cells (average value), P5 ([2]; FBS 10%) | P1 Count (2-well) [2, 4] | P1 Count (2-well) ([2]; FBS 20%, P1) | P2 Count (3-well) ([2]; FBS 20%) | P2 Growth rate ([2]; FBS 20%) | P3 Count (3-well) ([2]; FBS 20%) | P3 Growth rate ([2]; FBS 20%) | also measured
FGF2: fibroblast growth factor (basic), human, recombinant (154aa), positive control; SEQ ID NO: 58 [reference compound] | Differentiation was similarly recognized | 3.6E+05 | 7.2 | 3.5E+05 | 7.0 | 3.0E+05 | 6.0 | 2.0E+05 | 3.9 | 6.8E+05 | 4.9E+06 | 3.4E+07 | 2.1E+08 | 8.1E+08 | 6.8E+05 | 1.2E+06 | 5.3E+05 | 10.7 | 6.6E+05 | 13.2 | P4 Count (3-well) ([2]; FBS 20%): 5.5E+05; P4 Growth rate ([2]; FBS 20%): 10.9; P5 Count (3-well) ([2]; FBS 20%): 3.6E+05; P5 Growth rate ([2]; FBS 20%): 7.2; cumulative number of cells (average value), P1 ([2]; FBS 20%): 1.2E+06; cumulative number of cells (average value), P2 ([2]; FBS 20%): 1.3E+07; cumulative number of cells (average value), P3 ([2]; FBS 20%): 1.7E+08; cumulative number of cells (average value), P4 ([2]; FBS 20%): 1.8E+09; cumulative number of cells (average value), P5 ([2]; FBS 20%): 1.3E+10; growth performance of MSC (cumulative number of cells) [2]: almost the same growth performance
B1 | Differentiation was similarly recognized | 4.3E+05 | 8.5 | 3.7E+05 | 7.5 | 2.9E+05 | 5.8 | 2.2E+05 | 4.3 | 6.3E+05 | 5.4E+06 | 4.0E+07 | 2.3E+08 | 1.0E+09 | 6.3E+05 | 1.3E+06 | 8.4E+05 | 16.7 | 6.9E+05 | 13.7 | morphology of MSC ([2]; 10% FBS, low concentration (1 ng/mL)): flattened morphology; morphology of MSC ([2]; 20% FBS): same morphology was exhibited regardless of the addition concentration; P4 Count (3-well) ([2]; FBS 20%): 4.9E+05; P4 Growth rate ([2]; FBS 20%): 9.7; P5 Count (3-well) ([2]; FBS 20%): 4.3E+05; P5 Growth rate ([2]; FBS 20%): 8.7; cumulative number of cells (average value), P1 ([2]; FBS 20%): 1.3E+06; cumulative number of cells (average value), P2 ([2]; FBS 20%): 2.1E+07; cumulative number of cells (average value), P3 ([2]; FBS 20%): 2.9E+08; cumulative number of cells (average value), P4 ([2]; FBS 20%): 2.8E+09; cumulative number of cells (average value), P5 ([2]; FBS 20%): 2.4E+10; growth performance of MSC (cumulative number of cells) [2]: almost the same growth performance
